Target: sCD4 induced HIV-1 IIIB Env complexes (gp120/gp41 native spikes) on HUTIIIB cells (clone 199-76) (HIV-1 IIIB; human, UniProt P04578 33-856; P01730 26-396)

B1: F105 (antibody, V domains shown)
VH: QVQLQESGPGLVKPSETLSLTCTVSGGSISSHYWSWIRQSPGKGLQWIGYIYYSGSTNYSPSLKSRVTISVETSKNQFSLKLTSMTAADTAVYYCARGPVPAVFYGDYRLDPWGQGTLVTVSS
VL: EIVLTQSPGTLSLSAGERATLSCRASQSVSSRYLAWYQQKPGQAPRLLIYGASSRATGIPDRFSGSGSGTDFTLTISRVEPEDFAVYYCQQYDNSVCTFGQGTKLEIK
EC50: > 100 nM

Reference: patent US20100197581A1 (TIBOTEC PHARMACEUTICALS, published 2010)
